Assay results published in patent publication US4415667A, “Carboxypeptidase a gamma and process for preparing same” (Eisai Co., Ltd., priority 1981, dated 1983).

Substrate: O=C(CNC(=O)OCc1ccccc1)N[C@@H](Cc1ccccc1)C(=O)O
Test: Michaelis constant and maximum reaction velocity, hydrolysis of Nα-carbobenzoxyglycyl-L-phenylalanine (ninhydrin method)
Assay type: biochemical, porcine
Conditions: other: substrate concentration varied from 0.02 to 0.1 M; 25.0 °C
Method: The enzyme activity of the enzyme of the invention for Nα-carbobenzoxyglycyl-L-phenylalanine substrate was investigated by the ninhydrin method. […] After the combined solutions stood at 25° C. for 5 minutes, 0.2 ml of an enzyme solution was added, and the solution was incubated at 25° C. for 15 minutes. The reaction was stopped by adding 1 ml of a 3 M acetate buffer solution (pH 5.0) in an ice bath. The ninhydrin reagent was added to effect color development according to the Yemn & Cocking method. The enzyme activity for a casein substrate was investigated by the Kunitz method. Enzyme activities of the enzyme of the invention for benzoylglycyl-L-arginine and elastin were also investigated by the respective methods above. Enzyme activity was observed only for Nα-carbobenzoxyglycyl-L-phenylalanine and casein.
(9) Michaelis constant and maximum reaction velocity

B1: porcine pancreas carboxypeptidase Aγ (new species, obtained in Example 1; NH2-terminal sequence beginning with Asn) (Sus scrofa) (protein)
chain: NYATYHTLEEIYDFMDILVAEHPQLVSKLQIGSSYEGRPIYVLKFSTGGNNRPAIWIDTGIHSREWVTQASGVWFAKKITEDYGQDPAFTAILDNLDIFLEIVTNPDGFAFTHSENRMWRKTRSRTSGSFCVGVDPNRNWDAGFGGAGASSNPCSETYHGKFPNSEVEVKSIVDFVNDHGNIKAFISIHSYSQLLLYPYGYKTEAPADKDELDQISKSAVAALTSLYGTKFQYGSIITTIYQASGGTIDWTYNQGIKYSFSFELRDTGRYGFLLPASQIIPTAQETWLALLTIMEHTLNHPY
notes: from tissue; host or cells: porcine pancreas (from the unit heads)
Km: 20 mM
Vmax: 235.5 µmol/min/mg
